Assay [1] relates to human cardiac myocytes (HMCs). The assay can be described thus: Caspase 3 staining and caspase 3 ELISA in cardiac myocytes. The assay is classed as cell-based. The settings on record: 1 μg/ml; cardiomyocytes. How it is done:
Human cardiac myocytes (HMC-c; PromoCell, Heidelberg, Germany) were grown to confluence on chamber slides followed by 6 hours of stimulation with rhSEMA7A, rhlgG1 Fc, BSA, or staurosporine (Sigma-Aldrich, Munich, Germany), 1 μg/ml each. After fixation, cells were stained with rabbit polyclonal anticaspase3 (abcam, Cambridge, UK).
(In an ELISA, binding on a coated surface is turned into a signal by an enzyme label.)

In assay [2] the test system is Sema7a^loxP/loxP HBBCre+ animals. Nature of the assay: Murine myocardial ischemia and reperfusion model, reconstitution of Sema7a loxP/loxP HbbCre+ animals with rmSema7a. The assay is classed as in vivo, mouse. The text has this:
Sema7a^−/−mice were generated, validated and characterized as described in the prior art. The corresponding WT controls were bred as littermates of the Sema7a mice. In a subset of experiments, a newly generated Sema7a flox mouse line (Sema7a^loxP/loxP/Ozgene) on a C57BL/6 background was crossed with the following Cre recombinase-positive mouse lines to obtain tissue-specific gene deletion: Erythrocyte-specific HbbCre+, myocardial cell-specific Myh6Cre+; endothelial cell-specific Tie2Cre+; and immune cell-specific LysMCre+. Tissue-specific gene deletions of Sema7a mouse lines (Sema7a^loxP/loxP HbbCre+; Sema7a^loxP/loxP Myh6Cre+, […], and Sema7a^loxP/loxP LysMCre+) were used in the experiments. Sema7a^loxP/loxP Cre-negative (−) littermates were used as controls. […]
The Vectastain ABC kit (Linaris, Wertheim, Germany) was used for immunohistochemical staining. […] Histological sections were analyzed for the presence of PNCs by manual counting within 3 independent tissue sections of each animal at a magnification of […].
(§1) Troponin blood plasma levels of samples collected by central venous puncture after 120 minutes of reperfusion were measured for murine troponin I type 3 (TNNI3) using the SEA478Mu ELISA kit (Cloud-Clone Corp, Houston, USA).

For a further assay, the system named is WT animals. Nature of the assay: Murine myocardial ischemia and reperfusion model, rmSema7a injected into WT animals. The assay is classed as in vivo, mouse. How it is done: This animal model has been described in detail in the prior art. Subgroups of animals received either recombinant mouse Sema7a (rmSema7a) or recombinant mouse IgG2A Fc (rmlgG2A Fc; control) intravenously before the start of the experiment or Sema7a antibody (abcam ab23578, Cambridge, UK; anti-Sema7a) or as control rabbit IgG sc-2027 (Santa Cruz Biotechnology, Santa Cruz, USA) 5 minutes before the start of reperfusion.
The Vectastain ABC kit (Linaris, Wertheim, Germany) was used for immunohistochemical staining. After inhibition of the nonspecific binding sites with avidin blocking solution (Vector), the sections were incubated with primary antibodies (rabbit anti-mouse CD41, abcam, Cambridge, UK) overnight at 4° C. Tissue sections were then incubated with biotinylated rabbit anti-IgG for 1 hour, followed by Vectastain ABC reagent for 30 minutes, then developed over DAB substrate. For PMN staining, the procedure was repeated using rat anti-mouse neutrophil antibody (BioRad, Serotec, Puchheim, Germany) and HistoGreen as substrate (Linaris, Wertheim, Germany). Counterstaining was performed with Nuclear Fast Red (Linaris, Wertheim, Germany). Histological sections were analyzed for the presence of PNCs by manual counting within 3 independent tissue sections of each animal at a magnification of […].
as §1
For flow cytometric analysis, the following antibodies were used and freshly prepared before the experiment: rat anti-mouse Ly6G (Biolegend, clone 1A8) labeled with BV421 (Biolegend 127628), rat anti-mouse CD42b-FITC (Emfret, clone Xia.G5), rat anti-mouse CD62P (BD Pharmingen, clone RB40.34) labeled with Alexa Fluor 647 (BD 563674), rat anti-mouse activated GPIlb/IIIa-PE (Emfret, clone JON/A).
After staining, sampling focused peripheral granulocytes by their granularity and surface expression of the lymphocyte antigen-6 complex, locus G (Ly-6G), referred to as SSC/Ly-6G+. The presence of the platelet surface marker CD42b on the surface of SSC/Ly-6G+ events distinguished SSC/Ly-6G+/CD42b+ platelet-neutrophil complexes (PNCs) from freely circulating SSC/Ly-6G+/CD42b- PMNs. These two populations were tested for their representation of the surface transmembrane glycoprotein P-selectin (CD62P) and activated GPIlb/IIIa (clone JON/A) (not shown).

For another assay, the system named is GPlb-IL-4-tg platelets. The assay can be described thus: Flow chamber: thrombus formation on collagen in flow, blood of GPlb-IL-4tg mice. The assay is classed as cell-based, mouse. The following applies: shear rate 1000 s−1. How it is done: (§2) Platelet adhesion in flow was measured by perfusion of murine whole blood on collagen-coated coverslips (200 μg/ml fibrillar type I collagen) at 1000 s^−1 or 400 s^−1, as indicated. Platelets were labeled with a DyLight 488-conjugated anti-GPIX Ig derivative ([…]) and treated with rmSema7a or IgG2A Fc for 5 minutes at 37° C. before perfusion. In the case of treatment with GPlb-blocking antibody, 100 μg/mouse p0p/B Fab was injected intravenously 20 minutes before blood collection for the experiment. In further experiments, blood from animals with […] GPlb (GPlb-IL4tg) was used.

The subject of a further assay is neutrophils. The assay can be described thus: Neutrophil rolling/adhesion, coated capillaries and intravital microscopy of cremaster. Set-up: species or system mouse. The settings on record: in vitro and in vivo. As for the experimental part: Mice were anesthetized, and cremasal tissue was dissected under a Nikon 20×water immersion lens (NA=0.32). Neutrophils were resuspended with 20 μl of anti-Ly6G (Biolegend 127608) and platelets with 20 μl of platelet-specific FITC-labeled X488 antibody (emfret, Eibelstadt, Germany) in 200 μl and administered i.v. Videos of postcapillary cremaster venules 20-40 μm in diameter were recorded using a Hamamatsu Orca Flash 4.0 camera mounted on a dual-emission image splitter (optoSplit II, Cairn Research; UK) at a rate of 16 frames/s (for videos totaling 10 seconds) and with a resolution of 2048×1024 pixels mounted on a Nikon Eclipse Ci-L microscope (Nikon, Dusseldorf; Germany) operated by NIS elements Ar software. Videos were recorded before administration of rmSema7a i.v., and videos were recorded at 20-second intervals for 5 minutes after incubation for 15 minutes. Neutrophil velocity (μm/sec) was calculated from manually tracked cells, stationary neutrophils were counted (cell count/mm^2), platelet sedimentation on the vessel wall was measured (normalized MFI %/mm), transmigrated cells from the vasculature after 15 min exposure to rmSema7a were counted (cell count/mm^2), the distance of transmigrated cells measured in μm in all videos was calculated using NIS elements Ar software 4.20-64 bit processed (Nikon, Dusseldorf, Germany).

For the next assay, the system named is WT platelets. Nature of the assay: Flow chamber: thrombus formation on collagen in flow, whole-blood perfusion. The assay is classed as cell-based, mouse. How it is done: as §2

B1: rhSEMA7A: recombinant human SEMA7A (protein, UniProt O75326 45-648, looked up)
Semaphorin-7A: QGHLRSGPRIFAVWKGHVGQDRVDFGQTEPHTVLFHEPGSSSVWVGGRGKVYLFDFPEGKNASVRTVNIGSTKGSCLDKRDCENYITLLERRSEGLLACGTNARHPSCWNLVNGTVVPLGEMRGYAPFSPDENSLVLFEGDEVYSTIRKQEYNGKIPRFRRIRGESELYTSDTVMQNPQFIKATIVHQDQAYDDKIYYFFREDNPDKNPEAPLNVSRVAQLCRGDQGGESSLSVSKWNTFLKAMLVCSDAATNKNFNRLQDVFLLPDPSGQWRDTRVYGVFSNPWNYSAVCVYSLGDIDKVFRTSSLKGYHSSLPNPRPGKCLPDQQPIPTETFQVADRHPEVAQRVEPMGPLKTPLFHSKYHYQKVAVHRMQASHGETFHVLYLTTDRGTIHKVVEPGEQEHSFAFNIMEIQPFRRAAAIQTMSLDAERRKLYVSSQWEVSQVPLDLCEVYGGGCHGCLMSRDPYCGWDQGRCISIYSSERSVLQSINPAEPHKECPNPKPDKAPLQKVSLAPNSRYYLSCPMESRHATYSWRHKENVEQSCEPGHQSPNCILFIENLTAQQYGHYFCEAQEGSYFREAQHWQLLPEDGIMAEHLLGHACALA
Regarding B1, the “pro-apoptotic effect assessed by caspase 3 activation” value in assay [1] is given as “no direct pro-apoptotic effect”.

B2: rmSema7a: recombinant mouse Sema7a fusion protein (R&D SYSTEMS, Minneapolis, USA) (protein)
chain: QGHSRSGPRISAVWKGQDHVDFSQPEPHTVLFHEPGSFSVWVGGRGKVYHFNFPEGKNASVRTVNIGSTKGSCQDKQDCGNYITLLERRGNGLLVCGTNARKPSCWNLVNDSVVMSLGEMKGYAPFSPDENSLVLFEGDEVYSTIRKQEYNGKIPRFRRIRGESELYTSDTVMQNPQFIKATIVHQDQAYDDKIYYFFREDNPDKNPEAPLNVSRVAQLCRGDQGGESSLSVSKWNTFLKAMLVCSDAATNRNFNRLQDVFLLPDPSGQWRDTRVYGVFSNPWNYSAVCVYSLGDIDRVFRTSSLKGYHMGLPNPRPGMCLPKKQPIPTETFQVADSHPEVAQRVEPMGPLKTPLFHSKYHYQKVVVHRMQASNGETFHVLYLTTDRGTIHKVVESGDQDHSFVFNIMEIQPFHRAAAIQAISLDADRRKLYVTSQWEVSQVPLDMCEVYSGGCHGCLMSRDPYCGWDQDRCVSIYSSQRSVLQSINPAEPHRECPNPKPDEAPLQKVSLARNSRYYLTCPMESRHATYLWRHEENVEQSCEPGHQSPSCILFIENLTARQYGHYRCEAQEGSYLREAQHWELLPEDRALAEQLMGHARALA
modifications: left off: a dimerising Fc or GST
Turning to B2, the “reduction in infarct size, plasma TnI and PNCs seen in Sema7a loxP/loxP HbbCre+ animals” value in assay [2] (injection of rmSema7a) was “these results were reversed”. In addition, the MIRI entry in assay [2] (ischemia 1 h, reperfusion 2 h, vs Fc control) was “increased MIRI”. Also, the infarct size result with WT animals (1 μg/mouse before reperfusion, compared with rmIgG2A Fc control) is given as “significantly increased infarct size”. In the assay on WT animals (compared with Fc controls), the “numbers of PNCs in tissue areas at risk (histological sections)” value is “decreased numbers of PNCs” and the “tissue damage in histological sections” value is on record as “increased tissue damage”. In the assay on WT animals (flow cytometry), the “PNCs extravasated into the myocardium in the AAR” value is reported as “more PNCs extravasated”; the “numbers of PNCs in the blood” value is listed as “significantly increased numbers of PNCs”; the “signals for GPlb, P-selectin, and activated integrin αIIbβ3 (JON/A) on conjugates in the AAR” value is “significantly increased signals”; the “signals for the platelet markers GPlb, CD62P, and activated integrin αIIbβ3 (JON/A) on conjugates in blood” value was “stronger signals”. Also, the “troponin I” value in the assay on WT animals (plasma, 120 min, compared with Fc control) was “increased troponin I”. The “adhesion or thrombus formation of GPlb-IL-4-tg platelets on collagen in flow” value in the assay on GPlb-IL-4-tg platelets is recorded as “does not affect”. Besides, in the assay with neutrophils, the neutrophil adhesion entry was “affected neutrophil adhesion”. Besides, the “adhesion and thrombus formation of WT platelets on collagen in flow” value with WT platelets (shear rate 400 s^−1) is “markedly enhances”. The “adhesion and thrombus formation of WT platelets on collagen in flow” value in the assay with WT platelets (shear rate 1000 s^−1) was “markedly enhances”.

Source of the values: patent US20230036161A1, “AGENT FOR USE IN THE TREATMENT AND PROPHYLAXIS OF POSTISCHEMIC TISSUE INJURY” (Eberhard Karls Universität Tübingen Medizinische Fakultät, priority 2020, published 2023).
